Tests used:
Assay type in all cases: cell-based
[1] = system: Escherichia coli K-12 strain (NBRC 3301); experiment: Antimicrobial activity enhancement test (colony count, CFU); details: culture 17 hours
Protocol: In the antimicrobial activity enhancement test, antimicrobial activity of a sample obtained by mixing the antimicrobial activity enhancing agent of the present invention with lactoferrin or a lactoferrin hydrolysate was measured. As a control, antimicrobial activity of a sample containing only lactoferrin or a lactoferrin hydrolysate was also measured.
By using 1% Bacto peptone medium, Escherichia coli K-12 strain was inoculated into the medium contained in a polystyrene tube with a 5 ml capacity, and precultured in an incubator at 37° C. for 6 hours to obtain a cell suspension for the test. The precultured Escherichia coli was added to a 96-well plate at a cell density of 10^6 cells/mL together with each of the aforementioned samples, and cultured at 37° C. for a predetermined time. After the culture for the predetermined time, the culture medium containing Escherichia coli was serially diluted with 0.85% physiological saline, and plated on an agar medium, and culture was performed at 37° C. for a predetermined time. Then, number of colonies (colony forming units:CFU) was measured.
Antimicrobial activity of each sample was evaluated on the basis of the value of CFU. Degree of enhancement of the antimicrobial activity was calculated by comparison of the numbers of Escherichia coli (CFU) that remained after the test. For example, if CFU of Sample 1 is 100, and CFU of Sample 2 is 10 after the test, the antimicrobial activity of Sample 2 can be determined to be 10 times that of Sample 1. […]
By using 1% Bacto peptone medium (Becton Dickinson), the Escherichia coli K-12 strain (NBRC 3301) was inoculated to the medium contained in a polystyrene tube with a 5 ml capacity at a density of 10^6 CFU/mL, and precultured in an incubator at 37° C. for 6 hours to obtain a cell suspension for the test.
The cell suspension for the test was added to a 96-well plate at a cell density of 10^6 CFU/mL together with each of the aforementioned samples, and culture was performed at 37° C. for 17 hours.
After the culture for 17 hours, the culture medium containing Escherichia coli was serially diluted with 0.85% physiological saline, and plated on an agar medium (Rapid Media RM-SPC, Morinaga Milk Industry), and then culture was performed at 37° C. for 16 hours. Then, number of the formed colonies (CFU: Colony Forming Unit) was measured to evaluate the antimicrobial activity of each sample.

[2] = system: Cronobacter sakazaki ATCC 12868; experiment: Minimum inhibitory concentration (MIC), absorbance at 630 nm; details: Test Example 6; MIC as lactoferrin concentration; 17 hours, 37° C.
Protocol: (§1) By using 1% Bacto peptone medium (Becton Dickinson), each of Escherichia coli 0111, Cronobacter sakazaki ATCC 12868, Salmonella enteritidis IID 604, Klebsiella pneumoniae JCM 1662T, Pseudomonas aeruginosa MMI 603, Staphylococcus aureus JCM 2151 and Staphylococcus epidermidis JCM 2414T was inoculated to the medium contained in a polystyrene tube with a 5 ml capacity at a density of 10^6 cells/mL, and precultured in an incubator at 37° C. for 6 hours to obtain a cell suspension for the test.
(§2) Each of the cell suspensions for the test was added to a 96-well plate at a cell density of 10^6 cells/mL together with each of the aforementioned samples, and culture was performed at 37° C. for 17 hours.
(§3) After the culture for 17 hours, absorbance of the medium was measured at 630 nm using a microplate reader (Corona Electric). In addition, each bacterium was cultured only with the medium as a control, besides the culture using Samples 16 to 30.
(§4) By using 1% Bacto peptone medium (Becton Dickinson), each of Escherichia coli 0111, Cronobacter sakazaki ATCC 12868, Klebsiella pneumoniae JCM 1662T, Pseudomonas aeruginosa MMI 603, and Staphylococcus aureus JCM 2151 was inoculated to the medium contained in a polystyrene tube with a 5 ml capacity at a density of 10^6 cells/mL, and precultured in an incubator at 37° C. for 6 hours to obtain a cell suspension for the test. In a similar manner, by using the PYG medium (1% Bacto peptone, 0.05% yeast extract (Becton Dickinson), 1% glucose (Wako Pure Chemical Industries)), Streptococcus mutans JCM 5705T was inoculated to the medium contained in a polystyrene tube with a 5 ml capacity at a density of 10^6 cells/mL, and precultured in an incubator at 37° C. for 6 hours to obtain a cell suspension for the test. Further, by using the Sabouraud medium (1% Bacto peptone, 2% glucose), Candida albicans TIMM1768 was inoculated to the medium contained in a polystyrene tube with a 5 ml capacity at a density of 10^6 cells/mL, and precultured in an incubator at 37° C. for 6 hours to obtain a cell suspension for the test.
(§5) After the culture for 17 hours, absorbance of the medium was measured at 630 nm using a microplate reader (Corona Electric). In addition, each bacterium was cultured only with the medium as a control, besides the culture using Samples 31 to 41.

Escherichia coli O111 = experiment: as above; details: Test Example 6; MIC as lactoferrin concentration; 17 hours, 37° C.
Protocol: as §1, §2, §3, §4, §5

[3] = system: Klebsiella pneumoniae JCM 1662T; experiment: as above; details: Test Example 6; MIC as lactoferrin concentration; 17 hours, 37° C.
Protocol: as §1, §2, §3, §4, §5

[4] = system: Pseudomonas aeruginosa MMI 603; experiment: as above; details: Test Example 6; MIC as lactoferrin concentration; 17 hours, 37° C.
Protocol: as §1, §2, §3, §4, §5

[5] = system: Staphylococcus aureus JCM 2151; experiment: as above; details: Test Example 6; MIC as lactoferrin concentration; 17 hours, 37° C.
Protocol: as §1, §2, §3, §4, §5

[6] = system: Salmonella enteritidis IID 604; experiment: as above; details: Test Example 6; MIC as lactoferrin concentration; 17 hours, 37° C.
Protocol: as §1, §2, §3

[7] = system: Staphylococcus epidermidis JCM 2414T; experiment: as above; details: Test Example 6; MIC as lactoferrin concentration; 17 hours, 37° C.
Protocol: as §1, §2, §3

[8] = system: Candida albicans TIMM1768; experiment: as above; details: Test Example 6; MIC as lactoferrin concentration; Sabouraud medium; 17 hours, 37° C.
Protocol: (§6) In a similar manner, by using the PYG medium (1% Bacto peptone, 0.05% yeast extract (Becton Dickinson), 1% glucose (Wako Pure Chemical Industries)), Streptococcus mutans JCM 5705T was inoculated to the medium contained in a polystyrene tube with a 5 ml capacity at a density of 10^6 cells/mL, and precultured in an incubator at 37° C. for 6 hours to obtain a cell suspension for the test. Further, by using the Sabouraud medium (1% Bacto peptone, 2% glucose), Candida albicans TIMM1768 was inoculated to the medium contained in a polystyrene tube with a 5 ml capacity at a density of 10^6 cells/mL, and precultured in an incubator at 37° C. for 6 hours to obtain a cell suspension for the test.
as §2
(§7) After the culture for 17 hours, absorbance of the medium was measured at 630 nm using a microplate reader (Corona Electric). In addition, each bacterium was cultured only with the medium as a control, besides the culture using Samples 16 to 30. […]
(§8) After the culture for 17 hours, absorbance of the medium was measured at 630 nm using a microplate reader (Corona Electric). […]

[9] = system: Streptococcus mutans JCM 5705T; experiment: as above; details: Test Example 6; MIC as lactoferrin concentration; PYG medium; 17 hours, 37° C.
Protocol: as §6, §2, §7, §8

B1: Sample 14: Angiogenin-1 (32 μg/mL), bovine, about 15 kDa, separated by gel filtration HPLC in Example 5 (SEQ ID NO: 4) (protein, listed as Bos taurus)
chain: AQDDYRYIHFLTQHYDAKPKGRNDEYCFNMMKNRRLTRPCKDRNTFIHGNKNDIKAICEDRNGQPYRGDLRISKSEFQITICKHKGGSSRPPCRYGATEDSRVIVVGCENGLPVHFDESFITPRH
With B1 the “Change of Log10 CFU relative to control” value ([1]; Test Example 5) was 0.160, the “Survival rate based on control” value ([1]; Test Example 5) was 144.654% and the “antimicrobial activity (in words)” value ([1]; Test Example 5) was “do not have antimicrobial activity”.

B2: LF: bovine lactoferrin (Morinaga Milk Industry) diluted with deionized water; 2 mg/mL in Samples 1 and 11 (protein, UniProt P24627 20-708, looked up)
Lactotransferrin: APRKNVRWCTISQPEWFKCRRWQWRMKKLGAPSITCVRRAFALECIRAIAEKKADAVTLDGGMVFEAGRDPYKLRPVAAEIYGTKESPQTHYYAVAVVKKGSNFQLDQLQGRKSCHTGLGRSAGWIIPMGILRPYLSWTESLEPLQGAVAKFFSASCVPCIDRQAYPNLCQLCKGEGENQCACSSREPYFGYSGAFKCLQDGAGDVAFVKETTVFENLPEKADRDQYELLCLNNSRAPVDAFKECHLAQVPSHAVVARSVDGKEDLIWKLLSKAQEKFGKNKSRSFQLFGSPPGQRDLLFKDSALGFLRIPSKVDSALYLGSRYLTTLKNLRETAEEVKARYTRVVWCAVGPEEQKKCQQWSQQSGQNVTCATASTTDDCIVLVLKGEADALNLDGGYIYTAGKCGLVPVLAENRKSSKHSSLDCVLRPTEGYLAVAVVKKANEGLTWNSLKDKKSCHTAVDRTAGWNIPMGLIVNQTGSCAFDEFFSQSCAPGADPKSRLCALCAGDDQGLDKCVPNSKEKYYGYTGAFRCLAEDVGDVAFVKNDTVWENTNGESTADWAKNLNREDFRLLCLDGTRKPVTEAQSCHLAVAPNHAVVSRSDRAAHVKQVLLHQQALFGKNGKNCPDKFCLFKSETKNLLFNDNTECLAKLGGRPTYEEYLGTEYVTAIANLKKCSTSPLLEACAFLTR
In the case of B2, the “Change of Log10 CFU relative to control” value ([1]; Test Example 2) is reported as −2.472, the “Survival rate based on control” value ([1]; Test Example 2) is reported as 0.337% and the “Change of Log10 CFU relative to control” value ([1]; Test Example 5) is reported as −2.657. The “Survival rate based on control” value ([1]; Test Example 5) was 0.220%, the MIC [2] was 8 mg/mL and the MIC (Escherichia coli O111) was 2 mg/mL. The MIC [3] was 8 mg/mL, the MIC [4] was 8 mg/mL and the MIC [5] was 0.5 mg/mL. The MIC [6] was 4 mg/mL, the MIC [7] was 1 mg/mL and the MIC [8] was 1 mg/mL. It also gave an MIC [9] of over 8 mg/mL.

B3: angiogenin-2: bovine angiogenin-2, about 17 kDa component of peak α in Example 5 (SEQ ID NO: 7) (protein, listed as Bos taurus)
chain: QNDAYRGFLRKHYDPSPTGHDDRYCNTMMERRNMTRPCKDTNTFIHGNSDDIRAVCDDRNGEPYRNGLRRSRSPFQVTTCRHRGGSPRPPCRYRAFRANRVIVIRCRDGFPIHLEENFIPPRP
With B3 the “antimicrobial activity (in words)” value ([1]; Test Example 5) was “do not have antimicrobial activity”.
